Laboratory results from PMC2878558 (The Journal of Biological Chemistry, 2010).

B1: VAMP7(119–180) (domain or fragment, human, UniProt P51809 119-180, looked up)
chain: ENKGLDKVMETQAQVDELKGIMVRNIDLVAQRGERLELLIDKTENLVDSSVTFKTTSRNLAR
B2: VAMP7(1–118) (domain or fragment, human, UniProt P51809 1-118, looked up)
chain: MAILFAVVARGTTILAKHAWCGGNFLEVTEQILAKIPSENNKLTYSHGNYLFHYICQDRIVYLCITDDDFERSRAFNFLNEIKKRFQTTYGSRAQTALPYAMNSEFSSVLAAQLKHHS

Columns and labels:
[1] = biological target: B2; assay: NMR titration
[2] = biological target: the molecule itself; assay: SEC-MALS

Binder | binding result [1] | stoichiometry N [2]
B1 | binds | –
B2 | – | 2
